Source: patent US20240182536A1
Where “and” joins values, the source holds several entries; their conditions need not be identical. Identical values can stand only once. Like-named read-outs stand apart in the source and are kept apart here. Blank lines part the entries; values can stand above or below the substance they belong to.

Legend:
Assay in all cases: cell-based or functional assay
[1] = target: IL-18 receptors on HEK-Blue IL-18 reporter cells (UniProt Q13478)
[2] = target: human IL-18 binding protein (human) (UniProt O95998)
Sequence of human IL-18 binding protein (human) (O95998 31-194 limits assumed): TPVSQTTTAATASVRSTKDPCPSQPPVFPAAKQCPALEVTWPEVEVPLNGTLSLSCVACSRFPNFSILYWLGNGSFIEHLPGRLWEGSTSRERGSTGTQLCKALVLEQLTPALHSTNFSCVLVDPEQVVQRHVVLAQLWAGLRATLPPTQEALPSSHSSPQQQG

[3] = target: interleukin 18 binding protein (IL-18BP) (UniProt O95998)
Sequence of interleukin 18 binding protein (IL-18BP) (O95998 31-194 limits assumed): as above

[4] = target: IL-18 receptors on HEK-Blue IL-18 reporter cells (UniProt Q13478); remark: listed apart in the source
[5] = target: human IL-18 binding protein (human) (UniProt O95998); remark: listed apart in the source
[6] = target: T1, IL-18 receptor (IL-18Rα and IL-18Rβ) (UniProt Q13478)
T1 sequence (looked up) 1: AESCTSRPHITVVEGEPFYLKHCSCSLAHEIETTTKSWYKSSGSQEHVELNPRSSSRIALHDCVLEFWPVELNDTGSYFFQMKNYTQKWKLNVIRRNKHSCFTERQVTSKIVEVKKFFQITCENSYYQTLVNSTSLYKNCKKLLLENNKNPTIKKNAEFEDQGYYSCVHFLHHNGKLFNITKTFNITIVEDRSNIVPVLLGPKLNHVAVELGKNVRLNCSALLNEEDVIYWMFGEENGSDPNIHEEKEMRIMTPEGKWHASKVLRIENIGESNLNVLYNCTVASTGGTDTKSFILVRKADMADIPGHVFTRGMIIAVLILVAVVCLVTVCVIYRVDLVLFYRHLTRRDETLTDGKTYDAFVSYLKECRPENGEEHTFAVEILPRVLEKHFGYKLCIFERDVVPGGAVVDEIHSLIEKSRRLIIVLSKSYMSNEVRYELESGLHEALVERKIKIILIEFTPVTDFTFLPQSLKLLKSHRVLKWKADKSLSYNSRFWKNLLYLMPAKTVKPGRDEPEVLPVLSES
T1 sequence (looked up) 2: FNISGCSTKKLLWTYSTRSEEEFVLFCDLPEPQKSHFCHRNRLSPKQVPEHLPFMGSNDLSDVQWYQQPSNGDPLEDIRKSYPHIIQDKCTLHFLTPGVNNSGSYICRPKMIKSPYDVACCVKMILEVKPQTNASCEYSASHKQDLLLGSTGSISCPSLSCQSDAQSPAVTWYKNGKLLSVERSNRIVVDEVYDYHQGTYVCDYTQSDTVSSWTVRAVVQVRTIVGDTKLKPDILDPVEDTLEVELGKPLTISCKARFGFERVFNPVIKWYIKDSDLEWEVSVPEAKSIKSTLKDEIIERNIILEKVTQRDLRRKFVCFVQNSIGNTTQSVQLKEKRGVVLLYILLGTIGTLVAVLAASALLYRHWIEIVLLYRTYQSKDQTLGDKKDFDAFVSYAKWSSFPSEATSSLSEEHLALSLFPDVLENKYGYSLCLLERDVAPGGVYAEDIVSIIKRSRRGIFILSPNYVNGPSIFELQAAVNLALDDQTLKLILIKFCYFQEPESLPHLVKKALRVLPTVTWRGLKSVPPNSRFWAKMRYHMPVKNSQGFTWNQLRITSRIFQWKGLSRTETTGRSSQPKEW

[7] = target: IL-18 binding protein (IL-18BP) (UniProt O95998)
Sequence of IL-18 binding protein (IL-18BP) (O95998 31-194 limits assumed): as the sequence (O95998 31-194 limits assumed) above

Sequence of WT-hIL-18-monoFc (Fc fusion) (chain): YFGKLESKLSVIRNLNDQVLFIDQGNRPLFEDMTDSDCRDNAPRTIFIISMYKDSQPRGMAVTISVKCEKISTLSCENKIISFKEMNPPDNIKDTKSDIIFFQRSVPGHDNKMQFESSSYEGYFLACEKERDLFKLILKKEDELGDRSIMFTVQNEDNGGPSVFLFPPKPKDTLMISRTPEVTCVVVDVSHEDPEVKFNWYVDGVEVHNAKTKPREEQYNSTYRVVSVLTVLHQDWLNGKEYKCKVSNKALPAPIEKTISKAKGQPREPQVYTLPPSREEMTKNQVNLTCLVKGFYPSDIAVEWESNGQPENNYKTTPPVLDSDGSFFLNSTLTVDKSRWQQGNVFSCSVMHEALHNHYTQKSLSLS
Sequence of WT-monoFc (wild-type human IL-18 linked to monoFc) (Fc fusion) (chain): as above
Sequence of WT-monoFc (Fc fusion) (chain): as above

Substance: G3T/E6K/K53A-monoFc (Fc fusion)
- HEK-blue EC50 (pM) - IL-18BP [1]: 0.06 pM
- HEK-blue EC50 (pM) + 300 nM IL-18BP [2]: 2.81 pM

Substance: G3T/M60K-HSA-his-avi
- HEK-blue EC50 (pM) - IL-18BP [1]: 0.36 pM
- HEK-blue EC50 (pM) + 300 nM IL-18BP [2]: 4.25 pM

Substance: G3T/M60K-monoFc (Fc fusion)
- HEK-blue EC50 (pM) - IL-18BP [1]: 0.21 pM
- HEK-blue EC50 (pM) + 300 nM IL-18BP [2]: 1.78 pM

Substance: G3V/M60K-monoFc (Fc fusion)
- HEK-blue EC50 (pM) - IL-18BP [1]: 0.15 pM
- HEK-blue EC50 (pM) + 300 nM IL-18BP [2]: 1.57 pM

Substance: IL-18 variant S36E, D40A, N41M, K53T, S55Y, P107S (ligand)
- HEK-Blue activity, No BP, DF-10000 [1]: 0.24
- HEK-Blue activity, No BP, DF-100,000 [1]: 0.11
- HEK-Blue activity, No BP, DF-1,000,000 [1]: 0.09
- HEK-Blue activity, +100 nM BP, DF-10000 [3]: 0.25
- HEK-Blue activity, +100 nM BP, DF-100,000 [3]: 0.11
- HEK-Blue activity, +100 nM BP, DF-1,000,000 [3]: 0.09
- Ratio (-BP/+BP), DF-10000 [3]: 0.97
- Ratio (-BP/+BP), DF-100,000 [3]: 1.02
- Ratio (-BP/+BP), DF-1,000,000 [3]: 1.01

Substance: WT-hIL-18-monoFc (Fc fusion)
- HEK-Blue activity, No BP, DF-10000 [1]: 2.24
- HEK-Blue activity, No BP, DF-100,000 [1]: 2.08
- HEK-Blue activity, No BP, DF-1,000,000 [1]: 1.75
- HEK-blue EC50 (pM) - BP [1]: 0.458 pM
- HEK-blue EC50 (pM) - IL-18BP [1]: 0.29 pM
- HEK-Blue activity, +100 nM BP, DF-10000 [2]: 0.92
- HEK-Blue activity, +100 nM BP, DF-100,000 [2]: 0.29
- HEK-Blue activity, +100 nM BP, DF-1,000,000 [2]: 0.24
- HEK-blue EC50 (pM) + 300 nM BP [2]: 221 pM
- HEK-blue EC50 (pM) + 300 nM IL-18BP [2]: > 500 pM
- Ratio (-BP/+BP), DF-10000 [2]: 2.45
- Ratio (-BP/+BP), DF-100,000 [2]: 7.16
- Ratio (-BP/+BP), DF-1,000,000 [2]: 7.32
- HEK-blue EC50 (pM) - BP [4]: 0.495 pM
- HEK-blue EC50 (pM) + 1000 nM BP [5]: 99.8 pM

Substance: WT-monoFc (wild-type human IL-18 linked to monoFc) (Fc fusion)
- EC50 (pM) - BP, HEK-blue re-screening [6]: 0.51 pM and 0.43 pM and 0.6 pM
- EC50 (pM), PBMC IFN gamma assay [6]: 96.8 pM
- EC50 (pM), PBMC IFN gamma assay, + 300 nM BP [3]: 611 pM
- Ratio (HEK-blue EC50, + 100 nM BP against - BP) [3]: 520 and 360 and 338

Substance: hIL18(G3P, E6K, D54Y, S55P, T63S, N91S, R104Q)-monoFc (Fc fusion)
- EC50 (pM), PBMC IFN gamma assay [6]: 19.5 pM
- EC50 (pM), PBMC IFN gamma assay, + 300 nM BP [3]: 74.5 pM

Substance: wt-monoFc (from UniProt Q14116 37-193; P01857 119-327) (Fc fusion)
- Activity, No BP, DF-100000 [1]: 1.94
- Activity, No BP, DF-500000 [1]: 1.43
- Activity, No BP, DF-2500000 [1]: 0.77
- Activity, +100 nM BP, DF-1000002 [7]: 0.11
- Activity, +100 nM BP, DF-5000003 [7]: 0.08
- Activity, +100 nM BP, DF-25000004 [7]: 0.07
- Ratio (-BP/+BP), DF-1000005 [7]: 17.4
- Ratio (-BP/+BP), DF-5000006 [7]: 17.4
- Ratio (-BP/+BP), DF-25000007 [7]: 10.5

Next, values leading:

- HEK-blue EC50 (pM) - IL-18BP [1]: 0.19 pM
- HEK-blue EC50 (pM) + 300 nM IL-18BP [2]: 3.83 pM
Substance: G3V/M60K-HSA-his-avi

- HEK-blue EC50 (pM) - BP [1]: 0.52 pM
- HEK-blue EC50 (pM) + 300 nM BP [3]: > 500 pM
- Ratio [3]: 947
Substance: WT-monoFc (Fc fusion)

- Activity, No BP, DF-100000 [1]: 2
- Activity, No BP, DF-500000 [1]: 1.91
- Activity, No BP, DF-2500000 [1]: 1.49
- HEK-Blue activity, No BP, DF-10000 [1]: 2.19
- HEK-Blue activity, No BP, DF-100,000 [1]: 2.26
- HEK-Blue activity, No BP, DF-1,000,000 [1]: 2.16
- Activity, +100 nM BP, DF-1000002 [7]: 2.01
- Activity, +100 nM BP, DF-5000003 [7]: 1.95
- Activity, +100 nM BP, DF-25000004 [7]: 1.59
- Ratio (-BP/+BP), DF-1000005 [7]: 0.99
- Ratio (-BP/+BP), DF-5000006 [7]: 0.98
- Ratio (-BP/+BP), DF-25000007 [7]: 0.93
- HEK-Blue activity, +100 nM BP, DF-10000 [2]: 2.21
- HEK-Blue activity, +100 nM BP, DF-100,000 [2]: 2.19
- HEK-Blue activity, +100 nM BP, DF-1,000,000 [2]: 2.1
- Ratio (-BP/+BP), DF-10000 [2]: 0.99
- Ratio (-BP/+BP), DF-100,000 [2]: 1.03
- Ratio (-BP/+BP), DF-1,000,000 [2]: 1.03
Substance: hDR-18-monoFc (Fc fusion)

- EC50 (pM), PBMC IFN gamma assay [6]: 85.6 pM
- EC50 (pM), PBMC IFN gamma assay, + 300 nM BP [3]: 64.1 pM
Substance: hIL18(G3P, E6K, D54Y, S55P, T63S, N91S, R104Q, Q154R)-monoFc (Fc fusion)
